Common to all, as to assay: two-hybrid library CCNG1;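 further: natural log of median RNA to DNA barcode read ratio; higher means stronger binding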
For one assay, the target named is T1, 4H3606-bN.
T1 chain: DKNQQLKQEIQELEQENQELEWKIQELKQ

For another assay, the target named is T2, 4H883-bN.
T2 chain: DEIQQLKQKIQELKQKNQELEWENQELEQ

For a further assay, the target named is T3, 4H575-bA.
T3 chain: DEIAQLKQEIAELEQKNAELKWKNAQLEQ

For another assay, the target named is T4, 4H717-bN.
T4 chain: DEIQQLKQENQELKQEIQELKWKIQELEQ

For the next assay, the target named is T5, 4H3185-bN.
T5 chain: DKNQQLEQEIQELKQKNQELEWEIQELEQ

The target of the next assay is T6, 4H3354-bN.
T6 chain: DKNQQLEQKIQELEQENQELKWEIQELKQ

A further assay addresses T7, 4H918-bN.
T7 chain: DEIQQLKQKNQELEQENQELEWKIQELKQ

For another assay, the target named is T8, 4H607-bN.
T8 chain: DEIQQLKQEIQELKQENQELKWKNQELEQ

A further assay concerns the target T9, 4H908-bN.
T9 chain: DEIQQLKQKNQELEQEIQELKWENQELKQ

In the next assay the target is T10, 4H797-bN.
T10 chain: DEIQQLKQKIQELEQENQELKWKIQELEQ

In a further assay the target is T11, 4H2697-bN.
T11 chain: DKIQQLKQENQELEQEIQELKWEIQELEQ

The target in a further assay is T12, 4H72-bN.
T12 chain: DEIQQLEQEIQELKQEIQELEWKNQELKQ

A further assay deals with T13, 4H454-bN.
T13 chain: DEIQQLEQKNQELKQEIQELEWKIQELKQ

The next assay has as its target T14, 4H568-bN.
T14 chain: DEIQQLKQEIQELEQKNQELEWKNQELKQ

A further assay deals with T15, 4H3843-bN.
T15 chain: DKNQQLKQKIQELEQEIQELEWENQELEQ

The next assay deals with T16, 4H3189-bN.
T16 chain: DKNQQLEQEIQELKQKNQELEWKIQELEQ

In a further assay the target is T17, 4H687-bN.
T17 chain: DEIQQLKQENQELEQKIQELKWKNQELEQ

Another assay deals with T18, 4H462-bN.
T18 chain: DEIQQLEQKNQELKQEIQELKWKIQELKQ

The target in a further assay is T19, 4H2729-bN.
T19 chain: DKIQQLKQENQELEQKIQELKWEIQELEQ

A further assay has as its target T20, 4H370-bN.
T20 chain: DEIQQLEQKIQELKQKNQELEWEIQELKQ

Another assay deals with T21, 4H331-bN.
T21 chain: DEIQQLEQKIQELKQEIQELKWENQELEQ

A further assay deals with T22, 4H953-bN.
T22 chain: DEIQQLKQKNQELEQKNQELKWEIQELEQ

In a further assay the target is T23, 4H3427-bN.
T23 chain: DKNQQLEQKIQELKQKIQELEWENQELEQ

A further assay concerns the target T24, 4H3782-bN.
T24 chain: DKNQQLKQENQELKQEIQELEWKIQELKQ

The target in the next assay is T25, 4H338-bN.
T25 chain: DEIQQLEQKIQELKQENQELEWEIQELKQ

For the next assay, the target named is T26, 4H967-bN.
T26 chain: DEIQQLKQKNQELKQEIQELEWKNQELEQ

Another assay deals with T27, 4H754-bN.
T27 chain: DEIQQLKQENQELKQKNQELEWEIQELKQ

In the next assay the target is T28, 4H3112-bN.
T28 chain: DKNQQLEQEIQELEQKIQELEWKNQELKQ

A further assay has as its target T29, 4H2667-bN.
T29 chain: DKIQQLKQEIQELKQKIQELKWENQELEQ

The target of a further assay is T30, 4H3855-bN.
T30 chain: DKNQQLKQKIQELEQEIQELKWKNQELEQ

The next assay addresses T31, 4H4001-bN.
T31 chain: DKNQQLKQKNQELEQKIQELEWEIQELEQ

A further assay deals with T32, 4H918-bH.
T32 chain: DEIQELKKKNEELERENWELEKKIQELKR

In the next assay the target is T33, 4H967-bH.
T33 chain: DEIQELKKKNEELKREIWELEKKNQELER

The target in a further assay is T34, 4H968-bH.
T34 chain: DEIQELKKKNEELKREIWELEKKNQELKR

A further assay concerns the target T35, 4H953-bH.
T35 chain: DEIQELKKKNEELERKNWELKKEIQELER

For another assay, the target named is T36, 4H855-bH.
T36 chain: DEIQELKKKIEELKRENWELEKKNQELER

In the next assay the target is T37, 4H908-bH.
T37 chain: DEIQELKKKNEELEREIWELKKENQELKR

A further assay deals with T38, 4H797-bH.
T38 chain: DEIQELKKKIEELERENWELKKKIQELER

The target in the next assay is T39, 4H883-bH.
T39 chain: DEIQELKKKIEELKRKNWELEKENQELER

Another assay addresses T40, O16-bA.
T40 chain: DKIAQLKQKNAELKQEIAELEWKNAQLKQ

The next assay concerns the target T41, O5-bA.
T41 chain: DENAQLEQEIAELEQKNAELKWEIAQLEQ

A further assay addresses T42, O6-bA.
T42 chain: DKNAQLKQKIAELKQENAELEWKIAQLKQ

A further assay has as its target T43, O4-bA.
T43 chain: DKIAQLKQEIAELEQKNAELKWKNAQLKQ

The target of a further assay is T44, O3-bA.
T44 chain: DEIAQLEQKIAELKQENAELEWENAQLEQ

For the next assay, the target named is T45, O8-bA.
T45 chain: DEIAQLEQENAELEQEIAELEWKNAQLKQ

The target in a further assay is T46, O2-bA.
T46 chain: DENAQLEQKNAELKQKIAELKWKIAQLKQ

The target of another assay is T47, O7-bA.
T47 chain: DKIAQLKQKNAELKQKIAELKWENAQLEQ

The next assay addresses T48, O9-bA.
T48 chain: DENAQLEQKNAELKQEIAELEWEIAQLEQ

The next assay concerns the target T49, 4H3817-bN.
T49 chain: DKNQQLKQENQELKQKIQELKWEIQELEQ

Drawing on publication PMC10397247, this text covers interaction score for four molecules.

In the case of DKIQQLKQEIQELKQKIQELKWENQELEQ [4H2667-bN], the interaction score is 0.163 with 4H3606-bN; -0.0532 with 4H883-bN; -1.2 with 4H575-bA; -0.215 with 4H717-bN; -0.735 with 4H3185-bN; -1.12 with 4H3354-bN. Besides, the interaction score in the assay with 4H918-bN is -1.12; with 4H607-bN, -1.69; with 4H908-bN it was -0.467; in the assay with 4H797-bN, -1.02; in the assay with 4H2697-bN, -0.288; with 4H72-bN, 0.513. For the same molecule, the interaction score with 4H454-bN is 0.31; with 4H568-bN, -0.122; in the assay with 4H3843-bN it was 1.5; with 4H3189-bN, -0.514; with 4H687-bN, -1.55; in the assay with 4H462-bN, -1.28. For the same molecule, the interaction score is -0.251 in the assay with 4H2729-bN; -0.572 with 4H370-bN; 2.18 with 4H331-bN; -0.794 with 4H953-bN; 1.56 with 4H3427-bN; -0.86 in the assay with 4H3782-bN. Besides, the interaction score with 4H338-bN is 0.105; with 4H967-bN, -0.671; with 4H754-bN it was -0.798; with 4H3112-bN, 1.72; with 4H2667-bN, 0.858; with 4H3855-bN, -0.551. In addition, the interaction score with 4H4001-bN came out at 0.942.
As for DEIQELKKKIEELERENWELKKKIQELER [4H797-bH], the interaction score with 4H918-bH was 0.24; with 4H967-bH it was 0.229; with 4H968-bH, -0.0614; in the assay with 4H953-bH, -0.0525; with 4H855-bH it was -1.17; with 4H908-bH it was -0.915. The interaction score was -0.311 in the assay with 4H797-bH, 0.639 in the assay with 4H883-bH and -0.174 in the assay with O16-bA.
Consider DKIAQLKQKNAELKQEIAELEWKNAQLKQ [O16-bA], for which the interaction score with O5-bA was -1.16; with O6-bA it was 1.4; in the assay with O4-bA, -0.54; with O3-bA it was -0.599; with O8-bA, 1.35; with O2-bA, -0.141. Further, the values for the interaction score with O7-bA, with O9-bA and with O16-bA were 1.33, -1.22 and -0.811, respectively.
As for DKIQQLKQENQELEQKIQELKWEIQELEQ [4H2729-bN], the interaction score was -2.01 with 4H883-bN; -1.59 with 4H717-bN; -0.905 in the assay with 4H3185-bN; -0.621 in the assay with 4H3354-bN; -0.584 in the assay with 4H918-bN; -1.28 with 4H607-bN. Also, the interaction score with 4H908-bN was -1.64; with 4H797-bN, -1.01; in the assay with 4H72-bN, -1.09; with 4H454-bN, 1.43; with 4H568-bN, -1.47; in the assay with 4H687-bN, -0.901. Moreover, the interaction score with 4H2729-bN was -1.82; with 4H331-bN it was -1.39; in the assay with 4H953-bN it was -0.965; in the assay with 4H3817-bN, -0.912; with 4H3427-bN it was -1.07; in the assay with 4H3782-bN it was -0.911. Also, the interaction score is -1.12 with 4H338-bN; -0.995 in the assay with 4H967-bN; -0.565 in the assay with 4H754-bN; -0.365 with 4H3112-bN; -0.181 with 4H3855-bN; -1.4 in the assay with 4H4001-bN.
